Data as given in publication PMC9481167, “Biosynthetic proteins targeting the SARS-CoV-2 spike as anti-virals” (PLoS Pathogens, 2022).

Molecular target: receptor binding domain (RBD) of the SARS-CoV-2 spike (SARS-CoV-2, UniProt P0DTC2, biotin (biotinylated; site not stated))
Experiment: BLI
Settings: both partners purified

Binder | binding result
VHH H11D4 (VHH, also called VHH11D4) VHH: QVQLVESGGGLMQAGGSLRLSCAVSGRTFSTAAMGWFRQAPGKEREFVAAIRWSGGSAYYADSVKGRFTISRDKAKNTVYLQMNSLKYEDTAVYYCARTENVRSLLSDYATWPYDYWGQGTQVTVSS | binds
VHH-72 (VHH) VHH: QVQLQESGGGLVQAGGSLRLSCAASGRTFSEYAMGWFRQAPGKEREFVATISWSGGSTYYTDSVKGRFTISRDNAKNTVYLQMNSLKPDDTAVYYCAAAGLGTVVSEWDYDYDYWGQGTQVTVSS | binds
